Assay results published in paper PMC11514473, “The transition state for coupled folding and binding of a disordered DNA binding domain resembles the unbound state” (Nucleic Acids Research, 2024).

How the values were obtained:
[1] = target: T1, CREB 285bZIP wild type (pseudo-WT, Cys to Ser) (human, UniProt P16220-1 285-339, C300S;C310S;C337S); assay: stopped-flow fluorescence (koff/kon); koff 2.44 s-1 averaged over competitor concentrations; 10 mM Mg2+; 10 mM MES pH 6.5, 150 mM NaCl, 10 mM MgCl2, 0.05% Tween-20, 25 C; NMR: 10 mM Tris-d11, 150 mM NaCl, 10 mM MgCl2, 1 mM NaN3, 5% D2O (NOE at 25 C); conditions: protein: recombinant; tags: extra N-terminal Gly after TEV cleavage; His6-GB1 removed; chain copies: 2; label: 5' Alexa Fluor 488; hairpin (self-annealing, 11 bp stem, CCCC loop)
T1 sequence: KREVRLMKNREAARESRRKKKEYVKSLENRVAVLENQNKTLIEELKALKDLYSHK

[2] = target: T1, CREB 285bZIP wild type (pseudo-WT, Cys …); assay: stopped-flow fluorescence (koff/kon); koff 2.531 s-1; kon 6.7 nM-1 s-1; 10 mM Mg2+; 10 mM MES pH 6.5, 150 mM NaCl, 10 mM MgCl2, 0.05% Tween-20, 25 C; NMR: 10 mM Tris-d11, 150 mM NaCl, 10 mM MgCl2, 1 mM NaN3, 5% D2O (NOE at 25 C); conditions: protein: recombinant; tags: extra N-terminal Gly after TEV cleavage; His6-GB1 removed; chain copies: 2; label: 5' Alexa Fluor 488; hairpin (self-annealing, 11 bp stem, CCCC loop)

CCTGACGTCAGCCCCCTGACGTCAGG (structured_DNA) [AlexaFluor488-CREh] showed a Kd [1] of 0.36 ± 0.04 nM and a Kd [2] of 0.38 ± 0.03 nM.
